Earlier results in article PMC10173724.

Target: FABP3 (Homo sapiens) (UniProt P05413)

Kd: 2.1 nM
Substance: alpha-synuclein C-terminal peptide Y133F/Y136F 130-140 (from UniProt P37840)
